For one molecule, Kd results are on record in publication PMC8012516, “Antimicrobial peptide DP7 with potential activity against SARS coronavirus infections” (Signal Transduction and Targeted Therapy, 2021).

The target of test [1] is angiotensin-converting enzyme 2 (UniProt Q9BYF1 18-805). As to the kind of experiment: SPR; Biacore; who was immobilised and the conditions are not given. The note with it: both partners purified. In general terms: Surface plasmon resonance follows binding to a sensor surface in real time, without labels.
Chain of angiotensin-converting enzyme 2 (Q9BYF1 18-805): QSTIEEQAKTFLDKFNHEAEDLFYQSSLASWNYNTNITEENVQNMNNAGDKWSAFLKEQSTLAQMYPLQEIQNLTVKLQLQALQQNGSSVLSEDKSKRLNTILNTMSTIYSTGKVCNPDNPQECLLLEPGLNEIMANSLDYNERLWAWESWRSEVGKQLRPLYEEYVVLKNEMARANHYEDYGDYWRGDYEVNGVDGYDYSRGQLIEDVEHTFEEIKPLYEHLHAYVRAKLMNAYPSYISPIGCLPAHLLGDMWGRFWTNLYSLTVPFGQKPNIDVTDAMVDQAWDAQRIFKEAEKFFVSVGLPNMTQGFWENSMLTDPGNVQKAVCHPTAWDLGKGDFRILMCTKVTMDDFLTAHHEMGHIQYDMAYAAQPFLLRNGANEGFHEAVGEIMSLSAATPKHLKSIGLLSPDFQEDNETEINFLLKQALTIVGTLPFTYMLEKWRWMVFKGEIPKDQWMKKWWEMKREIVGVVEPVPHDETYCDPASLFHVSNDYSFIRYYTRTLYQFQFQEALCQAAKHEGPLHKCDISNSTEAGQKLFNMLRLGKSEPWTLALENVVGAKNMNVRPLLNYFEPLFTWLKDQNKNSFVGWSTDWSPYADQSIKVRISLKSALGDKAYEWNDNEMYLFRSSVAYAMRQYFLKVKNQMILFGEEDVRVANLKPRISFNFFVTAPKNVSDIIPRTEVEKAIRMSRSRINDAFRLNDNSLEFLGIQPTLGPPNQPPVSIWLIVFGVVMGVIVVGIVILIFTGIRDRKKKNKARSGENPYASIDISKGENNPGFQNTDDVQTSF
The target of test [2] is T1, S-receptor-binding domain (RBD)-Fc of SARS-CoV-2 (SARS-CoV-2, UniProt P0DTC2).
T1 construct: also called S-RBD-Fc of SARS-CoV-2; S-RBD-Fc
As to the kind of experiment: SPR. The note with it: both partners purified.

For VQWRIRVAVIRK (also called antimicrobial peptide DP7) [antibacterial peptide DP7], the Kd in test [1] was found to be 227 nM; in test [2], 51.9 nM.

One may read the Kd as the free concentration of one partner at which half of the binding sites on the other are occupied at equilibrium, for simple one-to-one binding.
